Test results from PMC4257719.

Target: P. berghei SPECT1Δ41 (amino acids 42-241) (P. berghei)
Assay: SEC-MALS; TSK-Gel G3000 SWxl column with multiangle static light scattering; 150 mM NaCl, 50 mM Tris or HEPES, pH 7.4; monomer and dimer fractions run separately; the two species are stable over days

P. berghei SPECT1Δ41 (amino acids 42-241) (domain or fragment)
stoichiometry N: 2
